Measurements taken from patent US20230039279.

How the values were obtained:
[1] = test system: MMP-9 sensitive peptide (GPRSLSG-RRCG) linked ibuprofen
[2] = test system: MMP-9 peptide substrate M2, GRCR-GPRSLSG-RCRG
[3] = test system: cleavable peptide (1) GCRR-KGPRSLSGK-RRCG
[4] = test system: peptide (3), crosslinker based on substrate AVRWLLTA
[5] = test system: non-cleavable scrambled peptide GCRR-KSSRGGPLK-RRCG

Chain of matrix-metalloprotease-9 (MMP-9), 83 kDa, Merck (chain, as listed by the source): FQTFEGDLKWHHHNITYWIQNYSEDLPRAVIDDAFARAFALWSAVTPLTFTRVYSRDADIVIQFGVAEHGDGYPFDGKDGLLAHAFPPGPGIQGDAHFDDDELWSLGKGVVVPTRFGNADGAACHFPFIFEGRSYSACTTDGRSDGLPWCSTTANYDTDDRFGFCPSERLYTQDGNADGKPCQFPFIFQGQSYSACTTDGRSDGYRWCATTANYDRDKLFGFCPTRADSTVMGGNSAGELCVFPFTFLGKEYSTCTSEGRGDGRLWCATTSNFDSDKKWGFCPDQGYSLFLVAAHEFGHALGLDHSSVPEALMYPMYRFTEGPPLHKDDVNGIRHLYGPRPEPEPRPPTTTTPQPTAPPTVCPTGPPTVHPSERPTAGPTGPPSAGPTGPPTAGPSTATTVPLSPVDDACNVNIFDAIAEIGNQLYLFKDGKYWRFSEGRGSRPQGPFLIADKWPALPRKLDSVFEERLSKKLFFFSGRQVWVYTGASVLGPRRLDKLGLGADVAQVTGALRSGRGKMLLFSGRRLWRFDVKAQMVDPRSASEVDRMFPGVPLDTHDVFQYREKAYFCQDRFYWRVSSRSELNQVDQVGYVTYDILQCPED

Substance | specificity of protease-triggered ibuprofen liberation (FIG. 10B) [1] | cleavability of hybrid hydrogel (release of PLGA particles into the medium after 20 h with 3 µg/ml MMP-9) (peptide (6)) | degradation of H2-M2 combinational hydrogel and release of PLGA particles over 24 hours [2] | ultimate cumulative drug release at 48 hours from the dual-responsive conjugate hydrogel, MMP-9 alone (2 µg/ml) [1] | LC-MS detection of the liberated fragment in the supernatant after 2 days of hydrogel exposure to MMP9 solution (ibu-GPQGIWGQ-DRCG) | cleavability of hybrid hydrogel (release of PLGA particles into the medium after 20 h with 3 µg/ml MMP-9) [3] | cumulative drug release from GEL-iP after 4 hours with 3 µg/ml MMP-9 [3] | cleavability of hybrid hydrogel (release of PLGA particles into the medium after 20 h with 3 µg/ml MMP-9) (peptide (7)) | cleavability of hybrid hydrogel (release of PLGA particles into the medium after 20 h with 3 µg/ml MMP-9) (peptide (5)) | cleavability of hybrid hydrogel (release of PLGA particles into the medium after 20 h with 3 µg/ml MMP-9) [4] | cumulative drug release from scrGEL-iP after 4 hours with 3 µg/ml MMP-9 [5] | cleavability of hybrid hydrogel (release of PLGA particles into the medium after 20 h with 3 µg/ml MMP-9) (peptide (2)) | cleavability of hybrid hydrogel (release of PLGA particles into the medium after 20 h with 3 µg/ml MMP-9) (peptide (4))
cathepsin B | the peptide sequence, GPRSLSGRRCG (SEQ ID NO: 20), as a spacer illustrated a good specificity toward MMP-9 compared to cathepsin B and human neutrophil elastase (HNE) |  |  |  |  |  |  |  |  |  |  |  | 
matrix-metalloprotease-9 (MMP-9), 83 kDa, Merck | the peptide sequence, GPRSLSGRRCG (SEQ ID NO: 20), as a spacer illustrated a good specificity toward MMP-9 compared to cathepsin B and human neutrophil elastase (HNE) | hydrogels formed with peptides (2), (3), and (6) were not cleaved upon exposure to MMP-9 | H2 and M2 peptide substrates were preferentially cleaved by HNE and MMP-9 proteases respectively | the ultimate cumulative release achieved 71% | LC-MS analysis confirmed the presence of the liberated ibuprofen bearing fragment (ibu-GPQG, LC peak at elution time of 14.6 min, MS peak at m/z=546.20) | hybrid hydrogels crosslinked with peptides (1), (4), (5) and (7) could be digested by MMP-9 | exposing GEL-iP to MMP-9 for 4 hours significantly boosted the cumulative drug release to 100% compared to only 25% in the absence of MMP-9 | hybrid hydrogels crosslinked with peptides (1), (4), (5) and (7) could be digested by MMP-9 | hybrid hydrogels crosslinked with peptides (1), (4), (5) and (7) could be digested by MMP-9 | hydrogels formed with peptides (2), (3), and (6) were not cleaved upon exposure to MMP-9 | only 40% was released from the hybrid hydrogel crosslinked by the scrambled peptide (scrGEL-iP) at the same condition | hydrogels formed with peptides (2), (3), and (6) were not cleaved upon exposure to MMP-9 | hybrid hydrogels crosslinked with peptides (1), (4), (5) and (7) could be digested by MMP-9
